The target of this experiment is T1, oxMIF (oxidized macrophage migration inhibitory factor) in human tissue cryosections (human, UniProt P14174 2-115).
T1 construct: mature; Native oxMIF isoform in unfixed, air-dried cryosections of patient tissue (kidney, pancreas, breast, brain, lung, colon); also called oxidized MIF
In words: IHC, biotinylated RAM9 5 µg/ml on unfixed kidney cryosections, streptavidin-HRP/DAB. The procedure:
The kidney tissue slides were prepared according to state of the art techniques known to experts, either fresh frozen or OCT embedded, sectioned at 10 μm and stored at <=−80° C. after sectioning. All following steps were done at ambient temperature. The cryo-sections were air dried for 30 min and unspecific binding was blocked with blocking buffer (20% Normal Goat Serum/2% Bovine Serum Albumin/0.2% Fish Gelatine in TBS) for 30 min. The sections were then incubated with a primary, preferably biotinylated, anti-oxMIF Antibody (biotinylated-RAM9) in primary antibody dilution buffer (2% Bovine Serum Albumin/0.2% Fish Gelatine in TBS) at a concentration of 5 μg/ml for 60 min. After washing in TBS, the specimen was fixed in 4% PBS buffered formaldehyde for 15-20 min. Excess formaldehyde was removed by washing in TBS for 10 min. The staining was done using VECTASTAIN Elite ABC Reagent (HRP conjugated Streptavidin) for 30 min. Then the sections were extensively washed again 10 min in TBS. By using ImmPACT DAB Substrate for 10 minutes the staining was visualized as a brown color, which is reflected in FIG. 1A by a dark grey. The slides were washed in TBS and the nuclei were counterstained with Haematoxylin for 1-2 min. By washing the slides in tap water the color of the counter stain changes from violet to blue. […]

T1 sequence (P14174 2-115): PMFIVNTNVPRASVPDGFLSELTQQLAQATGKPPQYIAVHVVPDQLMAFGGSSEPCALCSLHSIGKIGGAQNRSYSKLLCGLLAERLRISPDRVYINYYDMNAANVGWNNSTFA

B1: anti-oxMIF antibody RAM9 (antibody, V domains shown)
VH: EVQLLESGGGLVQPGGSLRLSCAASGFTFSIYSMNWVRQAPGKGLEWVSSIGSSGGTTYYADSVKGRFTISRDNSKNTLYLQMNSLRAEDTAVYYCAGSQWLYGMDVWGQGTTVTVSS
VL: DIQMTQSPSSLSASVGDRVTITCRSSQRIMTYLNWYQQKPGKAPKLLIFVASHSQSGVPSRFRGSGSETDFTLTISGLQPEDSATYYCQQSFWTPLTFGGGTKVEIKR
notes: also called biotinylated-RAM9
B1: the binding result is on record as “binds”.

Values taken from patent publication US20150160235A1 (Takeda / Millennium, published 2015).
